One block for each molecule: values may come before it.
Experiments:
[1] = biological target: mouse S100A9 (mouse) (UniProt P31725); assay: SPR; competition: 100 nM mouse S100A9 injected over amine-coupled mLPS-Trap with soluble mLPS-Trap (100, 200, 400 nM) as competitor
[2] = biological target: T1, hS100A9 (Homo sapiens, UniProt P06702); assay: SPR: analytes injected over immobilised hS100A9; format: binding
T1 construct: made in house; host or cells: Escherichia coli (or purified from granulocytes)
T1 sequence (P06702 1-114): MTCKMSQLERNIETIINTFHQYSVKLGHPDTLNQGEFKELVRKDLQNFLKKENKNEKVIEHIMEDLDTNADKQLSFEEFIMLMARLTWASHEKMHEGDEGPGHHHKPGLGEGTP
Protocol: (§1) The SPR analysis was carried out with the Biacore 3000 system (GE Healthcare). Sensor chips, amine coupling kit, immobilization and running buffers, and regeneration solutions were obtained from GE Healthcare. Working solutions of all reagents used for Biacore analysis were prepared in 0.01 M Hepes, 0.15 M NaCl (pH 7.4) containing 0.005% v/v Surfactant P-20 (HBS-P; GE Healthcare) by buffer exchange on Fast Protein Desalting Micro-Spin Columns from Pierce. ABR-215757 was immobilised onto a CM5 chip through an amino-linker (ABR-224649). […] Activity of ligands after immobilisation was tested by injecting specific antibodies (unpublished data). In some experiments, S100A9 was immobilized either by random amine coupling or with a known orientation (i.e., by sulhydryl group conjugation to the only cysteine in S100A9 at position 3).
(B) Left: 100 nM TLR4/MD2 or MD2 injected over amino-coupled hS100A9. […] Fab 43/8 was injected at 50–200 nM to verify activity of immobilized hS100A9 (right). […] (482 KB PDF) Click here for additional data file.

[3] = biological target: T2, human S100A9 binding to human TLR4/MD2 (Homo sapiens, UniProt P06702); assay: SPR: inhibition of human S100A9 binding to immobilised human TLR4/MD2; settings: for inhibition of hS100A9 binding to immobilised hTLR4/MD2: 100 nM hS100A9
T2 construct: purchased R&D Systems (TLR4/MD-2 complex); S100A9 made in house
T2 sequence (P06702 1-114): T1 sequence (P06702 1-114)
Protocol: as §1
(§2) Binding to the various surfaces was performed by injecting the analyte at a flow rate of 30 μl/min in a physiological buffer (HBS-P) containing 1 mM Ca^2+ and 10 μM Zn^2+ as proposed for S100A8/9 by Robinson et al.. A typical analysis cycle consists of: (1) pumping running buffer for 1 min to obtain a stable baseline; (2) injection of sample for an appropriate period of time (association); (3) pumping running buffer for 2.5 min (dissociation); (4) injection of a short pulse (30 s) of 15 μl 10 mM glycine-HCl (pH 2.0) (regeneration); and (5) pumping running buffer for 2 min (stabilisation after regeneration) at a flow rate of 30 μl/min. […] In one experiment, S100A9 was injected into a buffer with a fixed Ca^2+ concentration (1 mM) and Zn^2+ in the range 0–50 μM. In a second experiment, Ca^2+ was varied from 0–2 mM at a fixed Zn^2+ concentration (10 μM). In subsequent analyses, regeneration was carried out under more mild conditions, i.e., by injecting 30 μl of HBS-P containing 3 mM EDTA (HBS-EP; GE Healthcare) for 60 s, to prolong the lifespan of the chip.
(§3) Compounds were also injected over the immobilised surfaces in the absence of S100A9 to exclude, or make possible correction for, any direct binding of compound to the surface.
(§4) Evaluation was carried out using BIAevaluation Software version 3.2 (GE Healthcare). The response at steady-state was obtained by fit of sensorgrams to standard binding models, where appropriate, or calculated as responses at late association or early dissociation phase using the Steady state affinity function in BIAevaluation. Affinity was determined from kinetic analysis (on- and off-rates) or as the apparent affinity after plotting responses versus concentration of analyte in a saturation curve. In the inhibition assay format, the competitor concentration yielding 50% inhibition (IC50) was calculated by fitting data to a one-site competition model in GraphPad Prism.

[4] = biological target: T3, human S100A9 binding to human RAGE (Homo sapiens, UniProt P06702); assay: SPR: inhibition of human S100A9 binding to immobilised human RAGE; settings: injected together with S100A9
T3 construct: purchased R&D Systems (RAGE/Fc); S100A9 made in house
T3 sequence (P06702 1-114): T1 sequence (P06702 1-114)
Protocol: as §1, §2, §3, §4

[5] = biological target: T4, human S100A9 (Homo sapiens, UniProt P06702); assay: SPR: human S100A9 binding to immobilised ABR-224649 (Q compound), direct binding and displacement; settings: injected together with S100A9
T4 construct: made in house; host or cells: Escherichia coli (or purified from granulocytes)
T4 sequence (P06702 1-114): T1 sequence (P06702 1-114)
Protocol: as §1, §2, §3, §4

[6] = biological target: T5, mouse RAGE/Fc (mouse, UniProt Q62151-1 23-340); assay: SPR; 50 and 100 nM mouse S100A9, or 100 nM mouse S100A8/A9, injected (3 min at 30 ul/min) over mouse RAGE/Fc or mLPS-Trap coupled to the sensor chip; settings: both partners purified
T5 construct: RAGE, mouse; also called mRAGE; mRAGE/hFc; source: bought: R&D Systems (carrier-free recombinant)

[7] = biological target: T6, human TLR4/MD-2 complex (human, UniProt O00206 24-631; Q9Y6Y9 19-160); assay: SPR; 100 nM TLR4/MD2 or MD2 injected over amine-coupled hS100A9 (~5,000 RU); fit to a 1:1 model with mass transfer; settings: both partners purified
T6 construct: Toll-like receptor 4, human; MD-2, human; Soluble recombinant complex; also called hTLR4/MD-2; hTLR4/MD2; source: bought: R&D Systems (carrier-free recombinant)

[8] = biological target: T6, human TLR4/MD-2 complex; assay: SPR; S100 proteins injected (100 nM, or a range of concentrations; 30 ul/min) over human TLR4/MD2 immobilised by amine coupling (~3,000 RU); HBS-P pH 7.4 with 1 mM Ca2+ and 10 uM Zn2+; fit to a 1:1 model with mass transfer; half-maximal binding from responses at late association (apparent); settings: both partners purified
[9] = biological target: T7, recombinant human RAGE/Fc (human, UniProt Q15109 23-342); assay: SPR; S100 proteins injected (100 nM, or a range of concentrations; 30 ul/min) over human RAGE/Fc immobilised by amine coupling (~3,000 RU); HBS-P pH 7.4 with 1 mM Ca2+ and 10 uM Zn2+; fit to a 1:1 model with mass transfer; half-maximal binding from responses at late association (apparent); settings: both partners purified
T7 construct: RAGE (receptor for advanced glycation end products), human; human IgG1 Fc was used as the control for the Fc part; also called hRAGE; rhRAGE/Fc; source: bought: R&D Systems (carrier-free recombinant)
T7 sequence (Q15109 23-342): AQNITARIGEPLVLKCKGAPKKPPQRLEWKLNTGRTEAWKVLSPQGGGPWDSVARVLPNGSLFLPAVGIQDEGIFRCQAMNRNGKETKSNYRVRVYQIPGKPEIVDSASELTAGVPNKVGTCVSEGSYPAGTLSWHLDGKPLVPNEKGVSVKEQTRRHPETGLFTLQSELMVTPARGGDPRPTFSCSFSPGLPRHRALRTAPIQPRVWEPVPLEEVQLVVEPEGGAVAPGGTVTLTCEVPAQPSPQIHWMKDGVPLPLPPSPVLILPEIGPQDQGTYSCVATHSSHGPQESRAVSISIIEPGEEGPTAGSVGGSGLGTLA

T6 sequence (O00206 24-631, chain 1 of 2): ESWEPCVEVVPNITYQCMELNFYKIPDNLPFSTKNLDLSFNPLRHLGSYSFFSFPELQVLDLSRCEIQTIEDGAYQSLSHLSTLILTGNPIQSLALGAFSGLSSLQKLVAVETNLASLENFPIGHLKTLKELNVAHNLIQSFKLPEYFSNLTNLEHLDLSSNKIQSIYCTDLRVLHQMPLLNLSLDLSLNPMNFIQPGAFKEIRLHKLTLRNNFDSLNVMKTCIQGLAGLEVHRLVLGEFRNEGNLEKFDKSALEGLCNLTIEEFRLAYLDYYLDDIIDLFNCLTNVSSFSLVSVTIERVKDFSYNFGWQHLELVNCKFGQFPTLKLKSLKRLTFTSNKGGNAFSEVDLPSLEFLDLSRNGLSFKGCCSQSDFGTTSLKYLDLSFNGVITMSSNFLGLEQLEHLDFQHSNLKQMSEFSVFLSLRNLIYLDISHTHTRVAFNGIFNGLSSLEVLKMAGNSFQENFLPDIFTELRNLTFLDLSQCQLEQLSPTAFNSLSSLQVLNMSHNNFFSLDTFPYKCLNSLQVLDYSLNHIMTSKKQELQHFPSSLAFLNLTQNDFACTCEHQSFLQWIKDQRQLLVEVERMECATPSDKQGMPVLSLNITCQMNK
T6 sequence (Q9Y6Y9 19-160, chain 2 of 2): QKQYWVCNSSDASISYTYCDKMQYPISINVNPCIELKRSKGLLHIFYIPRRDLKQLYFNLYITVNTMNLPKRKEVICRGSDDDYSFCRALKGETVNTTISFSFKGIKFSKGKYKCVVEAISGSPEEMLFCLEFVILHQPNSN
T5 sequence (Q62151 23-340): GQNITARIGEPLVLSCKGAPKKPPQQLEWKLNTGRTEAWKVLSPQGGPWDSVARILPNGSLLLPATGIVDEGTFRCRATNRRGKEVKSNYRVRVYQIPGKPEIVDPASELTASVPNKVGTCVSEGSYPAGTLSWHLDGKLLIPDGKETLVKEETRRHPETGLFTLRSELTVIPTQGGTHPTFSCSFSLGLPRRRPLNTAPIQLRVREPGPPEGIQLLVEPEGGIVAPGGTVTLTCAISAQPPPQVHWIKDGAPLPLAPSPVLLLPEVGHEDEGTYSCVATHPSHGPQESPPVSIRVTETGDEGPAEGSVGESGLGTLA

Molecule: mouse TLR4/MD2 fusion protein (mLPS-Trap)
percent inhibition of mS100A9 binding to immobilised mLPS-Trap at 100 nM competitor [1]: 22%
percent inhibition of mS100A9 binding to immobilised mLPS-Trap at 200 nM competitor [1]: 51%
percent inhibition of mS100A9 binding to immobilised mLPS-Trap at 400 nM competitor [1]: 70%

B1: mouse S100A9 (natural protein, UniProt P31725 1-113, looked up)
chain: MANKAPSQMERSITTIIDTFHQYSRKEGHPDTLSKKEFRQMVEAQLATFMKKEKRNEALINDIMEDLDTNQDNQLSFEECMMLMAKLIFACHEKLHENNPRGHGHSHGKGCGK
notes: S100A9, mouse; called homodimeric; also called mS100A9; murine S100A9; source: either produced recombinantly in Escherichia coli or purified from granulocytes
binding result [6]: binds

B4: human S100A8/A9 heterodimer (complex)
chain 1: MLTELEKALNSIIDVYHKYSLIKGNFHAVYRDDLKKLLETECPQYIRKKGADVWFKELDINTDGAVNFQEFLILVIKMGVAAHKKSHEESHKE
chain 2: T1 sequence (P06702 1-114)
notes: S100A8, human; S100A9, human; also called hS100A8/9; S100A8/A9 complex; source: either produced recombinantly in Escherichia coli or purified from granulocytes
Kd [8]: 3.8 nM
Kd [9]: 9.4 nM

Next, values leading:

binding to immobilised S100A9 [2]: did not
displacement of S100A9 binding to immobilised hTLR4/MD2 ([3]; 200 and 400 nM, unpublished data): No displacement
Molecule: rhMD-2: recombinant human MD-2

inhibition of S100A9 interaction with immobilised RAGE by competitor in solution [4]: inhibit
inhibition of S100A9 interaction with immobilised Q compound by competitor in solution [5]: inhibit
Kd ([2]; 100 nM analyte, 1:1 model with mass transfer, read-out: KD, binding to immobilised hS100A9): 9.2 nM
inhibition of hS100A9 binding to immobilised hTLR4/MD2 ([3]; competitor 200 nM): 55%
inhibition of hS100A9 binding to immobilised hTLR4/MD2 ([3]; competitor 400 nM): 78%
blocking of S100A9 interaction with immobilised TLR4 by competitor in solution ([3]; injected together with S100A9): efficiently block
Molecule: sTLR4/MD2: recombinant human TLR4/MD-2 complex in solution

binding result [6]: binds
B2: mouse S100A8/A9 heterodimer (complex)
chain 1: MPSELEKALSNLIDVYHNYSNIQGNHHALYKNDFKKMVTTECPQFVQNINIENLFRELDINSDNAINFEEFLAMVIKVGVASHKDSHKE
chain 2: B1 chain
notes: S100A8, mouse; S100A9, mouse; also called mS100A8/A9; murine S100A8/A9; source: either produced recombinantly in Escherichia coli or purified from granulocytes

Kd [7]: 9.2 nM
Kd [8]: 2.1 nM
Kd [9]: 38 nM
B3: human S100A9 (natural protein, UniProt P06702 1-114, looked up)
chain: T1 sequence (P06702 1-114)
notes: S100A9, human; called homodimeric; also called hS100A9; homodimeric S100A9; source: either produced recombinantly in Escherichia coli or purified from granulocytes

From PMC2671563 (PLoS Biology, 2009)
